Kd data for five molecules are collected here from PMC11169341, “Development of DNA aptamers targeting B7H3 by hybrid-SELEX: an alternative to antibodies for immuno-assays”.

To fix the notation:
T1: recombinant human B7-H3 His-tag (R&D 1949-B3-050) (Homo sapiens, UniProt Q5ZPR3-2 29-245)
T1 sequence: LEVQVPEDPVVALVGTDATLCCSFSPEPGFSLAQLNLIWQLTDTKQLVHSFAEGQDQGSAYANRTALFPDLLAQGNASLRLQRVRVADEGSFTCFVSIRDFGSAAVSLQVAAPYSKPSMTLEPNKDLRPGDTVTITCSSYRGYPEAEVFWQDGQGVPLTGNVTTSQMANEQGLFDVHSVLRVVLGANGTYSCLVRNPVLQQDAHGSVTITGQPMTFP

B1: VRF-HS_B7H3-01 (ssDNA)
DNA: TAGGGAAGAGAAGGACATATGATACAGCACGGTATGACGAGTCCATTGTGTGTGCAGCTCGCTAATTGACTAGTACATGACCACTT
B2: VRF-HS_B7H3-05 (ssDNA)
DNA: TAGGGAAGAGAAGGACATATGATTGAGAAGTCACGCCACTTACCTGCGCTCAAAACCTCAGAATTGACTAGTACATGACCACTT
B3: VRF-HS_B7H3-04 (ssDNA)
DNA: TAGGGAAGAGAAGGACATATGATTGCCCCTGACACTTACACGCCACTATCAAGGCACACGCCATTGACTAGTACATGACCACTT
B4: VRF-HS_B7H3-03 (ssDNA)
DNA: TAGGGAAGAGAAGGACATATGATATAAGTGACACATCAATCTCATGCGGATGAACCAGTGCGTTTGACTAGTACATGACCACTT
B5: VRF-HS_B7H3-02 (ssDNA)
DNA: TAGGGAAGAGAAGGACATATGATCGCCCCTCTTTTCGATTTCAAGCTCCTAACCCACACCTCTTTGACTAGTACATGACCACTT

Usually Kd stands for the equilibrium constant for the complex coming apart.

The data set addresses T1, recombinant human B7-H3 His-tag (R&D …). As to the kind of experiment: dot blot; FITC aptamer, 10 ng protein on membrane; ABB: AWB (composition not given) + 0.1 mg/ml yeast tRNA, 0.1 mg/ml salmon sperm DNA, 5% FBS, 1 mg/ml BSA; 60 min; 0-500 nM aptamer; flow binding assay on ice, dot-blot temperature and pH not stated. The settings on record: protein: commercial; tags: C-terminal His; label: FITC or biotin.
For B1, the dissociation constant Kd worked out at 19.2 ± 4.4 nM.

With B2, the Kd was found to be 32.7 ± 4.56 nM.

For B3, the Kd turned out to be 31.5 ± 4.02 nM. As to B4, the Kd was 22.7 ± 3.71 nM. Next, B5: 24.6 ± 3.69 nM.
